{"source": "paper PMC6294518", "about": "“Structural insights into the duplex DNA processing of TREX2” (Nucleic Acids Research, 2018)", "key": {"[1]": {"molecular_target": "the molecule itself", "test": "crystal structure; apo-mTREX2 at 1.9 Å, one dimer in the asymmetric unit; a dimer is also seen in the Y-shaped DNA complex and the product (dCMP) complex"}, "[2]": {"molecular_target": "T1, mTREX2 (Mus musculus, UniProt Q9R1A9 1-236)", "T1 sequence": "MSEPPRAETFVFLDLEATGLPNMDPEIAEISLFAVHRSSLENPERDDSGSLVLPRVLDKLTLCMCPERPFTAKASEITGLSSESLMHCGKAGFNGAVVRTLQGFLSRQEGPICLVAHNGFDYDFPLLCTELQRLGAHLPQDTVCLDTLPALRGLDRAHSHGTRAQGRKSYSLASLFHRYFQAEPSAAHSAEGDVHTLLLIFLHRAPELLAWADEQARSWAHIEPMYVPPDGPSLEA", "test": "X-ray crystallography (1.9 A); 2 Mg2+ per active site; Co-crystallization: mTREX2 5-8 mg/ml (stock 50 mM Tris-HCl, 400 mM NaCl, pH 7.0) with DNA at molar ratio 1:1.2; crystallization conditions in Table S2 not in the material", "conditions": "protein: recombinant; tags: pET28a vector, TALON-purified (His tag implied); chain copies: 2; hairpin; 1-nt unpaired 3' overhang, 4-nt unpaired 5' overhang; 2 DNAs per protein dimer"}, "[3]": {"molecular_target": "T1, mTREX2", "test": "X-ray crystallography (2.7 A); 2 Mg2+ per active site; Co-crystallization: mTREX2 5-8 mg/ml (stock 50 mM Tris-HCl, 400 mM NaCl, pH 7.0) with DNA at molar ratio 1:1.2; crystallization conditions in Table S2 not in the material", "conditions": "protein: recombinant; tags: pET28a vector, TALON-purified (His tag implied); chain copies: 2; hairpin; 3' overhang 2 nt"}}, "data": [{"binder": "mouse TREX2 (three prime repair exonuclease 2) (enzyme, TREX2, three prime repair exonuclease 2, mouse; NCBI Gene ID 24102; Cloned into pET28a and purified on a TALON column; Homodimer in the crystal and by gel filtration; also called mTREX2; apo-mTREX2; source: E. coli BL21-CodonPlus (DE3)-Rosetta, purified (HiTrap TALON, HiTrap Q, Superdex 75)) MSEPPRAETFVFLDLEATGLPNMDPEIAEISLFAVHRSSLENPERDDSGSLVLPRVLDKLTLCMCPERPFTAKASEITGLSSESLMHCGKAGFNGAVVRTLQGFLSRQEGPICLVAHNGFDYDFPLLCTELQRLGAHLPQDTVCLDTLPALRGLDRAHSHGTRAQGRKSYSLASLFHRYFQAEPSAAHSAEGDVHTLLLIFLHRAPELLAWADEQARSWAHIEPMYVPPDGPSLEA", "values": [{"measurement": "stoichiometry N", "setting": "[1]", "result": 2}]}, {"binder": "TGCCAGGCCCTCTTTAGGGCCTT (structured_DNA)", "note": "[Y-shaped DNA (23-nt stem loop)]", "values": [{"measurement": "binding result", "setting": "[2]", "result": "binds"}]}, {"binder": "GGCCCTCTTTAGGGCCTT (structured_DNA)", "note": "[duplex DNA with 2-nt 3'-overhang (stem loop)]", "values": [{"measurement": "binding result", "setting": "[3]", "result": "binds"}]}]}
